Reference: patent CN113461822A

How the values were obtained:
[1] = target: Scl-70抗原 (人DNA拓扑异构酶I的C末端片段的70kD分子量蛋白) (human) (UniProt P11387); experiment: chemiluminescence immunoassay on Scl-70-coated magnetic microspheres, ABEI-anti-human IgG; CHO supernatant undiluted
[2] = target: Scl-70抗原 (人DNA拓扑异构酶I的C末端片段的70kD分子量蛋白) (human) (UniProt P11387); experiment: chemiluminescence immunoassay on Scl-70-coated magnetic microspheres, ABEI-anti-human IgG; CHO supernatant diluted 10-fold
[3] = target: Scl-70抗原 (人DNA拓扑异构酶I的C末端片段的70kD分子量蛋白) (human) (UniProt P11387); experiment: chemiluminescence immunoassay on Scl-70-coated magnetic microspheres, ABEI-anti-human IgG; CHO supernatant diluted 30-fold
[4] = target: Scl-70抗原 (人DNA拓扑异构酶I的C末端片段的70kD分子量蛋白) (human) (UniProt P11387); experiment: chemiluminescence immunoassay on Scl-70-coated magnetic microspheres, ABEI-anti-human IgG; CHO supernatant diluted 50-fold
[5] = target: Scl-70抗原 (人DNA拓扑异构酶I的C末端片段的70kD分子量蛋白) (human) (UniProt P11387); experiment: chemiluminescence immunoassay on Scl-70-coated magnetic microspheres, ABEI-anti-human IgG; CHO supernatant diluted 100-fold
[6] = target: Scl-70抗原 (人DNA拓扑异构酶I的C末端片段的70kD分子量蛋白) (human) (UniProt P11387); experiment: chemiluminescence immunoassay on Scl-70-coated magnetic microspheres, ABEI-anti-human IgG; CHO supernatant diluted 150-fold
[7] = target: Scl-70抗原 (人DNA拓扑异构酶I的C末端片段的70kD分子量蛋白) (human) (UniProt P11387); experiment: chemiluminescence immunoassay on Scl-70-coated magnetic microspheres, ABEI-anti-human IgG; CHO supernatant diluted 200-fold

Binder	原液RLU [1]	稀释10倍RLU [2]	稀释30倍RLU [3]	稀释50倍RLU [4]	稀释100倍RLU [5]	稀释150倍RLU [6]	稀释200倍RLU [7]
抗体1 (实施例11; 2D6抗体) (antibody, human IgG1, kappa, V domains shown) VH: EIQLVQSGSEVVRTGTSVKLSCKASGYRFTSYWMHWVKQRPGQGLEWIGNINPGDGRTNYDENFKNKATLTVDPSSNTAYMQLNSLTSEDSAVYYCTRDGNYGIFDYWGRGTSVTVSS VL: NIVMTQSPSSLVVSAGEKVTLSCKSSQSLLYSSNQKNYLAWFQQKPGQSPKLLIYWASTRESGVPDRFTGSGSRTDFTLTISSVQAEDMAVYYCHQYIYLWSFGGGSKLEIER	1.64e+06 RLU	1.01e+06 RLU	355000 RLU	220000 RLU	140000 RLU	73100 RLU	55400 RLU
抗体5 (实施例15) (antibody, human IgG1, kappa, V domains shown) VH: EIQLVQSGSEVVRTGTSVKLSCKASGYRFTSYWMHWVKQRPGQGLEWIGNINPGDGRTNYDENFKNKATLTVDPSSNTAYMQLNSLTSEDSAVYYCTRDGNYGIFDYWGRGTSVTVSS VL: DIELTQSPSSLVVSAGEKVTLSCKSSQSLLYSSNQKNYLAWFQQKPGQSPKLLIYWASTRGSGVPDRFTGSGSRTDFTLTISSVQAEDMAVYYCHQYIYLWSFGGGTKLEIKR	2e+06 RLU	1.31e+06 RLU	421000 RLU	239000 RLU	129000 RLU	89300 RLU	59200 RLU
抗体6 (实施例16) (antibody, human IgG1, kappa, V domains shown) VH: EVKLVESGGGLVQPGGSRKLSCAASGFTFSSYWMHWVRQAPEKGLEWVANINPGDGRTNYDENFKNRFTISRDNPENTLFLQMTSLTSEDTAIYYCARRAAYGNYDWYFDVWGAGTTVTVSS VL: NIVMTQSPSSLVVSAGEKVTLSCKSSQSLLYSSNQKNYLAWFQQKPGQSPKLLIYWASTRESGVPDRFTGSGSRTDFTLTISSVQAEDMAVYYCHQYIYLWSFGGGSKLEIER	1.08e+06 RLU	801000 RLU	329000 RLU	177000 RLU	86400 RLU	57600 RLU	43500 RLU
抗体4 (实施例14) (antibody, human IgG1, kappa, V domains shown) VH: EVKLVESGGGLVQPGGSRKLSCAASGFTFSSYWMHWVRQAPEKGLEWVAYISSGGITIYYADTVKGRFTISRDNPENTLFLQMTSLTSEDTAIYYCARRAAYGNYDWYFDVWGAGTTVTVSS VL: NIVMTQSPSSLVVSAGEKVTLSCKSSQSLLYSSNQKNYLAWFQQKPGQSPKLLIYWASTRESGVPDRFTGSGSRTDFTLTISSVQAEDMAVYYCHQYIYLWSFGGGSKLEIER	2.46e+06 RLU	1.74e+06 RLU	609000 RLU	379000 RLU	171000 RLU	124000 RLU	85700 RLU
